Our source for the fraction of client localized to the synthetic organelle values is patent US20250115886A1.

The target in this assay is TsCC(A)-(RGG)3-GFP scaffold (Caenorhabditis elegans). The assay can be described thus: integrated fluorescence intensity in condensates over whole cell, U2OS cells.

“Rac1-mCherry-TsCC(B) (from UniProt P63000 1-189)”: the fraction of client localized to the synthetic organelle was found to be 50%.
